Test [1] concerns the target Kip3_(438)-L11^KHC (S. cerevisiae) (UniProt P53086). Put plainly: BLI. On the technique in general: BLI is a label-free optical method that tracks binding on a fibre tip over time.
The target in test [2] is Kip3_(438) (S. cerevisiae) (UniProt P53086). Description: BLI.
The target in test [3] is Kip3_(448) (S. cerevisiae) (UniProt P53086). Put plainly: BLI.
The target in test [4] is bovine brain tubulin, unpolymerized (soluble αβ-tubulin dimer) (bovine) (UniProt Q6B856).
Test [5] addresses microtubules polymerized from bovine brain tubulin (bovine) (UniProt Q6B856). Description: single-molecule TIRF motility assay.
In test [6] the target is GTPγS-stabilized Tub1^D118A yeast microtubules (S. cerevisiae, UniProt P09733 1-447; P02557 1-457, D118A). Description: TIRF fluorescence intensity on immobilised microtubules.
GTPγS-stabilized Tub1^D118A yeast microtubules, sequence (P09733 whole entry D118A, chain 1 of 2): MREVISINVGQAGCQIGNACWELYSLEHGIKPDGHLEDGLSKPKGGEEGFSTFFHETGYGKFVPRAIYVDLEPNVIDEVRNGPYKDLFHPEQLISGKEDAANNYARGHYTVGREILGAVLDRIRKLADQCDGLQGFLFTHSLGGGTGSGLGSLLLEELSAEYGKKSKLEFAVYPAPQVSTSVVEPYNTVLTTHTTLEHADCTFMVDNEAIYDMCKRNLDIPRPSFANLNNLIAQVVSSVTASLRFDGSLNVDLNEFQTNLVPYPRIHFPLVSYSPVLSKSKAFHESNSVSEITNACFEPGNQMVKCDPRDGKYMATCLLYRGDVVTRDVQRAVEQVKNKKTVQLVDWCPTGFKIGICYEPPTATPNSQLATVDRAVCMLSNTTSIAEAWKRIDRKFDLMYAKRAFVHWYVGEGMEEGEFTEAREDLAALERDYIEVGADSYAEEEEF
GTPγS-stabilized Tub1^D118A yeast microtubules, sequence (P02557 whole entry, stated change not applied, chain 2 of 2): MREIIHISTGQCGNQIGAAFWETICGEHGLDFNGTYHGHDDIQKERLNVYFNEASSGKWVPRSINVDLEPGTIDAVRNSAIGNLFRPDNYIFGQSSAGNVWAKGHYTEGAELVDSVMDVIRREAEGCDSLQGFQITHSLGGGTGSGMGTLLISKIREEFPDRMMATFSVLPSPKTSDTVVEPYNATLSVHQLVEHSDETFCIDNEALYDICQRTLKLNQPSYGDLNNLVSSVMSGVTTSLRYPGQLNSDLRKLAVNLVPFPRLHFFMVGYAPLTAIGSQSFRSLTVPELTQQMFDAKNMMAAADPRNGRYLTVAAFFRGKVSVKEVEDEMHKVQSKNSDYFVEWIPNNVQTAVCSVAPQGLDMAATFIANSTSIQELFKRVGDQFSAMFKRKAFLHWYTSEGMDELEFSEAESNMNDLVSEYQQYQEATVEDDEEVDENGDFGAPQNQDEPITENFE
The target of test [7] is microtubules polymerized from bovine brain tubulin (bovine) (UniProt Q6B856). Put plainly: single-molecule TIRF motility assay. This is another data set of the same source.
microtubules polymerized from bovine brain tubulin (bovine), sequence (Q6B856 whole entry, looked up): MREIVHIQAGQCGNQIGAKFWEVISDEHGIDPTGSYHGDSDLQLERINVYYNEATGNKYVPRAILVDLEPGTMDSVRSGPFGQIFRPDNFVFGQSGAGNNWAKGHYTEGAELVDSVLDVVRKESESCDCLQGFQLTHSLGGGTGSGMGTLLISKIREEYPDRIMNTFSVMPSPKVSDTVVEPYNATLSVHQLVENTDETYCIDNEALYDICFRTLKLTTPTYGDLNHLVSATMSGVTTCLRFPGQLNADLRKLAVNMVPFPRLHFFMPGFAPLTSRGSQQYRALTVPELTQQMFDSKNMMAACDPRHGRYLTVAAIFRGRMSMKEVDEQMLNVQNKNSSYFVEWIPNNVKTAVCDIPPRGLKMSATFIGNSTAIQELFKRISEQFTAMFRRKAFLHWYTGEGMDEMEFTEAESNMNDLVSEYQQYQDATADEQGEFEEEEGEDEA
For test [8] the target is unchanged. Description: single-molecule TIRF motility assay. The source holds these as a separate data set.

Where two headings read alike, the source gives them in different places.

Molecule “bovine brain tubulin, unpolymerized (soluble αβ-tubulin dimer) (from UniProt Q6B856 1-445) (complex)” had a fold change in tubulin binding affinity, Kip3 438 over Kip3 438-L11KHC in test [1] of 7 fold. In test [2], this molecule yielded a lifetime of the complex of 48 s. This molecule displayed a residence time (koff^-1) with ADP in test [3] of 35.7 s.
In test [4], “KHC560-L11^Kip3 (from UniProt P33176 1-560)” displayed a steady-state ATPase: decrease of the KM for tubulin against kinesin-1 of 9.4 fold.
For “Kip3FL-L2^KHC (from UniProt P53086 1-805)”, the plus-end dwell time in test [5] came out at 9.3 s.
For the molecule “KHC560 with Kip3 Loop11 and Loop2 (from UniProt P33176 1-560)”, the plus-end residence time in test [5] was 52.1 s.

B1: Kip3FL (full-length Kip3, budding yeast kinesin-8) (natural protein, S. cerevisiae, UniProt P53086 1-805, looked up)
chain: MNVPETRQSSIVVAIRVRPFTSMEKTRLVNEASGAEANFPGLGDSSLILPMSNNSDSDIDIDAEEGSTRSKRNSLLRRKVIRPEGIRKIVDCVDDRMLIFDPADRNPLNKVSDQVLNSMRARATKATASSINNSNATNKFSSQRRRHGGEIKFVFDKLFDETSSQARVYKETTSPLLDSVLDGFNSTVFAYGATGCGKTYTVSGTPSQPGIIFLAMEELFNKITDLKDEKDFEISLSYLEIYNERIRDLLKPETPSKRLVIREDTQNHIKVANLSYHHPNTVEDVMDLVVQGNINRTTSPTEANEVSSRSHAVLQIHIMQTNKLVDLTSQHTFATLSIIDLAGSERAAATRNRGIRLHEGANINRSLLALGNCINALCLNDGSRSCHIPYRDSKLTRLLKFSLGGNCKTVMIVCISPSSSHYDETLNTLKYANRAKEIKTKIIRNQQSLSRHVGSYLKMITEQKRQIEELREREEKMISLKLTKYKLNKEKIQLAINECVNRVQQTYAGVETYQVAKTLKSLILCKRRFLQMVKLEVDNLILLFEREESTAAEMQPVISNCRMISGQLYNKIHELEMKFDETDTLSSVIHQVHSIDLNKLREMEDWDETYDLVYLESCLNQISELQRNEILVNSSIMTEKLMSDPGLNSRFKFLSKWLMNRTPNIESIIQDLVHIDEEFESFARTFIANPDSNFTNTNINIINTTAADLAVPAETLQRQNFSQKKVKWTSPDLSPSPMIEPQPELEPELHQDQDAIASEVDVSMQDTTFNEQGPSTPSAPTTAVPRRKMRSSLLTHQSLLATARK
modifications: TMR (HALO-TMR) on the HALO tag where labelled
For the molecule B1, in test [6], the binding result is recorded as “binds”. Further, the plus-end dwell time in test [7] stood at 52.9 s; in test [8] it was 38.2 s.

The record behind these values is publication PMC5573156 (Developmental cell, 2017).
